One may read the IC50 as the point on the concentration scale where inhibition reaches its midpoint. High values mean lower potency, low ones higher potency.

We go through two molecules from patent US20100068151A1 (published 2010).

This assay has as its target T1, VEGFR-2 expressed on PAE/KDR cells (human, UniProt P35968 20-1356).
T1 construct: whole, on cells
The assay can be described thus: cell-binding assay, displacement of 125I-VEGF165 from PAE/KDR cells.

T1 sequence (P35968 20-1356): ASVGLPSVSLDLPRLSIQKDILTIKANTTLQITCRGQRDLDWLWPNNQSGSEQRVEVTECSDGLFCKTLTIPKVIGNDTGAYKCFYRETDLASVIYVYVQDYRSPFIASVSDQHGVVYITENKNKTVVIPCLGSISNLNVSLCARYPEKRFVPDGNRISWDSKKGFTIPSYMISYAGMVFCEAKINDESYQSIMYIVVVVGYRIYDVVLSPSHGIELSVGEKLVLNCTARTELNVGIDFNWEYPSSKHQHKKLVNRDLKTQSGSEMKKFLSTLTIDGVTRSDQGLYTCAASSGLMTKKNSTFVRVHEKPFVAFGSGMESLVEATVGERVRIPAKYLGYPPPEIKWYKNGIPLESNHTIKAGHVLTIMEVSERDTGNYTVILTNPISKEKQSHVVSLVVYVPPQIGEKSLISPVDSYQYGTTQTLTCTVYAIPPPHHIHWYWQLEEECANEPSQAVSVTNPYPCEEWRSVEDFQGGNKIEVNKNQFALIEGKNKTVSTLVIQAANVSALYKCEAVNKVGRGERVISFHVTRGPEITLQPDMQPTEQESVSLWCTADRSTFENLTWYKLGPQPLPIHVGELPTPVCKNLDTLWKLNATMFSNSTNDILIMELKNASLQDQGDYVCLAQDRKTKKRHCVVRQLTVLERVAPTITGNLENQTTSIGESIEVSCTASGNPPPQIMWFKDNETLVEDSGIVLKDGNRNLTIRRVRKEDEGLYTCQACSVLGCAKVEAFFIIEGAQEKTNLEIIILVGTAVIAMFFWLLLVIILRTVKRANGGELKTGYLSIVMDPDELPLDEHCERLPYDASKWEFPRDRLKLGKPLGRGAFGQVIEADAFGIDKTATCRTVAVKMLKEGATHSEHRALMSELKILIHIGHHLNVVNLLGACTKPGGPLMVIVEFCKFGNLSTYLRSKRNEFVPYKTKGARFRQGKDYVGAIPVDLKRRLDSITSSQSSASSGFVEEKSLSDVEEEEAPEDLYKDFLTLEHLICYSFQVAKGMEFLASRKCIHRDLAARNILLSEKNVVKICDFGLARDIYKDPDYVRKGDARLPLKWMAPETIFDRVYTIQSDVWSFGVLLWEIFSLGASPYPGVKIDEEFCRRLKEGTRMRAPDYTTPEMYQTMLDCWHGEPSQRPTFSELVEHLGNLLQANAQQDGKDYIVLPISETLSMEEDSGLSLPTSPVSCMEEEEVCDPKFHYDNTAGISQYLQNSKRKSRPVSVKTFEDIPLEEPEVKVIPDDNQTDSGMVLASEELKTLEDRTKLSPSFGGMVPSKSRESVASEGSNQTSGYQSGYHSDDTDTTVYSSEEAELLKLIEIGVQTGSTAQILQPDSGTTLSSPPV

B1: VEGF121/rGel fusion toxin (other)
chain: APMAEGGGQNHHEVVKFMDVYQRSYCHPIETLVDIFQEYPDEIEYIFKPSCVPLMRCGGCCNDEGLECVPTEESNITMQIMRIKPHQGQHIGEMSFLQHNKCECRPKKDRARQEKCDKPRRGGGGSGLDTVSFSTKGATYITYVNFLNELRVKLKPEGNSHGIPLLRKKCDDPGKCFVLVALSNDNGQLAEIAIDVTSVYVVGYQVRNRSYFFKDAPDAAYEGLFKNTIKTRLHFGGSYPSLEGEKAYRETTDLGIEPLRIGIKKLDENAIDNYKPTEIASSLLVVIQMVSEAARFTFIENQIRNNFQQRIRPANNTISLENKWGKLSFQIRTSGANGMFSEAVELERANGKKYYVTAVDQVKPKIALLKFVDKDPK
notes: Described as an 84-kDa fusion protein made as in Veenendaal et al., 2002; also called vasculature-targeting fusion protein
The molecule B1 showed a concentration for half-maximal inhibition (IC50) of 24.5 nM.

B2: DOTA-VEGF121/rGel conjugate (other)
chain: APMAEGGGQNHHEVVKFMDVYQRSYCHPIETLVDIFQEYPDEIEYIFKPSCVPLMRCGGCCNDEGLECVPTEESNITMQIMRIKPHQGQHIGEMSFLQHNKCECRPKKDRARQEKCDKPRRGGGGSGLDTVSFSTKGATYITYVNFLNELRVKLKPEGNSHGIPLLRKKCDDPGKCFVLVALSNDNGQLAEIAIDVTSVYVVGYQVRNRSYFFKDAPDAAYEGLFKNTIKTRLHFGGSYPSLEGEKAYRETTDLGIEPLRIGIKKLDENAIDNYKPTEIASSLLVVIQMVSEAARFTFIENQIRNNFQQRIRPANNTISLENKWGKLSFQIRTSGANGMFSEAVELERANGKKYYVTAVDQVKPKIALLKFVDKDPK
modifications: DOTA chelator conjugated, 3.3±0.1 DOTA molecules per VEGF121/rGel molecule; sites not stated
B2 showed an IC50 of 40.6 nM.
